Assay results: paper PMC11098746 (2024)
No end group written: not given here.

T1: ADP315
T1 chain: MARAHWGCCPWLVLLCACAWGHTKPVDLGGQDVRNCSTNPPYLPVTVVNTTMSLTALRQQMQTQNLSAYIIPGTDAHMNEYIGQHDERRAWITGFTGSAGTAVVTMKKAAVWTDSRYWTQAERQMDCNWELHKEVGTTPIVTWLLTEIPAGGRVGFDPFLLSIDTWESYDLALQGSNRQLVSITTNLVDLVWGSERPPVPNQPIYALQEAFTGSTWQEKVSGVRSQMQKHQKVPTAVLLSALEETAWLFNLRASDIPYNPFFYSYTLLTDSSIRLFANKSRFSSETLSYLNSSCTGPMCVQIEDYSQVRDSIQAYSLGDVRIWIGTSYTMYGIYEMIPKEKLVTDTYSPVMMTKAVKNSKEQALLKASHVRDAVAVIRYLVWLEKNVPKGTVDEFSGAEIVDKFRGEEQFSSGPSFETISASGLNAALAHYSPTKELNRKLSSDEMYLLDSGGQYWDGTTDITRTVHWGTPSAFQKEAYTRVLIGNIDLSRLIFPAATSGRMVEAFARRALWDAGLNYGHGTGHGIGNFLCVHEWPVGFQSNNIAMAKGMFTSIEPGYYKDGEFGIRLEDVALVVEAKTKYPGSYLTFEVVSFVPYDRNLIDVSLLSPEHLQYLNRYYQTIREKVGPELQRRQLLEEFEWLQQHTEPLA


Target: T1, ADP315
Assay: AVEXIS screen signal:noise (double-corrected)

Binder	binding score
ADP175 (protein, bait human Fc-tagged dimer; N-glycosylation sequons mutated in Plasmodium baits) KVYQGQFYLKKNEKIHYLTKFSCNIGTCQFSIKMKLRDNIAAKLLNNYYKLNNKALKEMENDKDDGNNHNNNKYDDDNNNNNNRANKLLHMDYDNAYYVLSNQDLEYIPQRITLMQDIEQRYVNKNDKCYAFGNLKNSHMFNIPFYFKYSDLVNSKTYNLKNFINNKYSMSFNAIHSELKNNKLLQSEILNYGPILNEKNSNYAYKEIYAKTTHRVHVWFLMFDDCYDNFIRNLKLNIKTKLAYWEYLLHASKKFDISSLNDMDIKQDTSYNDFQNEETEKDIYSKENINNNNNNNMNNNMNEKKNKAIFYKSFNFDKITLLENPKRFLFLEEQFTKSEINDISFFLKYYQFKKMKNFNNMYNNLYKNGYYEQVIDYIYQNEGFHIEYEVNIFQTNKAHFSYE	5.79
ADP258 (protein, also: human Fc-tagged dimer) MGFHIQRYIAMMGRGINPKTWKKLWVDSKNKQIIHVYNDVAEFMNNQIAQVVRVYQYRY	6.28

Target: ADP369
Assay: AVEXIS screen signal:noise (double-corrected)

Binder	binding score
ADP186 (protein, bait human Fc-tagged dimer; N-glycosylation sequons mutated in Plasmodium baits) YNLNNDLSKNNNFALNTYVRKDDVEDDSKNEIVDNIQKMVDDFSDDIGFVKTSMREVLLDTEASLEEVSDHVVQNIAKYSLTIEEKLNLFDGLLEEFIENNKGLISNLAKRQQKLKGDKIKKVCDLILKKLKKLENVNKLIKYKIILKYGNKDNKKEMIQTLKNEEGLSDDFKNNLANYETEQNNDDIKEIELVNFISTNYDKFVVNLEDLNKELLKDLNMALS	5.22

Target: FGFR4 ectodomain (Homo sapiens, UniProt P22455)
Assay: AVEXIS normalised luminescence

Binder	binding score
22 (protein, bait human Fc-tagged dimer) RGNQISKCVFYDKRNKDLKQVFYVPTNDVNMYKETIRKLLSREISLLEEPLNENSDSHNMANKKNVANFEEIKKNDENNNRKRKEMEEKLKYIEKYRNYAKGVLKNVEFKCENVDDLKSKVKCNLCVYTEIVNNKHIRQGQIIQIFMNECMYGFYYYDNINQYTQNNEYNNKALKDYNSAQKLDDIYFNIAKDISEGNVNGINFFKQQSSKYHPVCYVTE	0.879
13 (protein, bait human Fc-tagged dimer) YLSSENQKKTIATVHNNARTNTLKKNNANNNNANDIFGLSPSEVPNLIDDEEEYEILEGVKNNADLTRSTNIDHPSPSSTMIDLDNIITEISKLKKKKLKKEMNNKLEQQTNQNNNAIHHNNENEINTFTQNIKTNSNELKNQDSSNSLISTNSNTMDELLLYSTNSEDNLDISFGELQLYENSDEDTSDYEYVNEDYSVNHIFSNDAEESFNILEDVENIALSSSNRYQYSPIGPYKKKHTKVFENFKMTRNYDEFLKLYNLKDSSDNQEEYYELLAGEPFKLNSYYYRDVKYENVKKYIFKEIYDNIQNIATENKIIVSKKEELFFYFIKSLLKNNFICLSYEEEENLLSESKLLLEAMISKKIQ	1.16
21 (protein, bait human Fc-tagged dimer) SPGNDNNNVNNDGVVHVLSKNIDVKNLQGTFYEIATNAADKIFPGLACRCTKYEFSGLKRDGNLGYVLINFACARNFIFGEKKSEMTFKLILNKPLDENTATVEEFNAAIYLVQGNQQILLNGNINIIYAELNEQNEFEHLILGGQKSIEPMIIMSKYRTVLLDTYNKLINSLYLAGYEPSLLTWPFIIQTDQTFCD	1.31
19 (protein, bait human Fc-tagged dimer) KNSDTKNNAYNDYYNTYLSKIHSFKAPFNVENLENGWNVDYSSVSTNKHVVLIPSIYNRRGVLYNKNPINSDNFIIEFNFFMERKYYKEKIDEKYYKDEKNDVHEIVYKTNSDDNLATSNKANNKEQKQIKRNGFALWILKDPFVIKEAGSNVNLVLQEEEYNIFGYKNRFNGIGILFQLKKSTNKANNKANNNNNYYYYNNYNDILNVAIILNNGDKSINSDDFTIFKNIPIDMIMINNLIHTKIICNKKEIIIAFYYPKSNNYINTLIMKNNIATENYIAFTSFNYKEDDNKNIDYNDVNNKYYENQNGYLPTFVGIKQVLTFNLNNNNNNNNNININEANINNNNYNNNNNNDNNKINYDQNYNKDISANDINAAFNDVLNNINPEKNTINQAIDVLNSITKLLQKFMNHQINSEKKLLQNINILNEKLQFVQTELKVIKKNLANQAEEPKNLQKMFSTELTGLKNLFHTHTQHHKKNIEDITNKLTKKIERNNELKILTEKAQKLEQIINK	1.47
85 (protein, bait human Fc-tagged dimer) VKERNNGFPKRGEGRYLFGRNQMKSQDIEKNNKELSNKMDTQDSKQYITYLYHSSICQYCSKVTSMLENNDNVEIIKFKENNKIEDFGKFTKPIVVLLKNINKENSLERSIFYEELKRKGKKVQVPALEVNNIILFESDEIIKFYKKLLQKVSNDDKSSLQNRGNIKNDQKKNNADYDNDYDNDDNNDDNDDDDDNNYNNNNDDGYDYHTS	1.22
24 (protein, bait human Fc-tagged dimer) FKGNYGEANFAFFQATPASHIEEPQKTESTDAQSNIAQNEEINNAKPLQENIANNQQNSNEQQNNNEQQNNIEQQNNNIQQNNIDTSISHVPNDAIKNPIDNSNIANLDKSNDANNVIKHEENNQAKENNLETIKHTEPLTNQNTNEVKINDHNEHEKNTEENKIEEQYNNINHHSHDINKNQAINNNMNNENADKNVPHLDQSAMSNEKHINEHTTNHPIESHTGENNHDKINEPIPIEHATTPTNEPIPIEHAATPTNEPIPIEHAATPTNEPIHIEHVATPANEPTHSEHATTTTNEPIHIEHAATPTNEHIHNEHATTTTNEPTHNEHAATITHEPTHNEHTTTPTNEPIHNEHATTPTNEPIPIEHIATPANEPTHNEHATTTTNEPTHNEHTTTPTNEPIHNEHATTPTNEPIPIEHIATPANEPTHNEHATTTTNEPTHNEHATTTTNEPTHNEHATTTTNEPIHNEHATATTNEATHNEHATTTTNEPTHNEHSTTPTNEATHSENAATSTNEQHSHDQNTEVHPNDKLALVPFQGIKNPIPSNEAQPIISFPNEDDNHAQNEGSINAPSEGEHNNADNKEGPIITPLEGEQAGTAHKEDVTHKHMVGEHVPPQKTHHGPIITPVGGNHVPPQTHHAHIITPVGGEHAHGQGNNDATYVTMNTDESSSSDTKGEHSNLRSYNKNMNNNHAQRDQYDSDTLNSEGSDDAYSSMQQNFEKNGIDSFKGKGLHVSLRERIIIEIMESAKNGIDGLLKLKDSKDSGKLFMEALEKLNINMKDLKKDKNLISLEVYDKILSTMFKILTEMSFYEDSKFYETLGIKKDILNQALKDIKIKMLRKLGVSYSRLPPIIKHTEGKCAIKDIIISISSKELAQRMAIMFTKWLAPDEYGAVVDYENNVELNVLCSGAPILIQQWKYYQNMLGFEEDKDHAYLGLIDELLVMNKRYSQNKDYVETLEKIKKSKVFKHCTKIMRIGGKVSSVPFNYENVKKPSSSIIGSLGNLIKANIATYYKATAQRINSYFHYTEKKSKKSSPLKIISVCTLLHLTDMLYKCSDENSNGVMDLYNLQLNTLNMKGKMVLQYLVHLKFLTQEKKNQLKEICEPQNGLIDETLTKMLILLSTDSHELLSHELENKGFDEDYIQDEIKNINEADNNIRDKEEDDAEKMIFDDL	1
7 (protein, bait human Fc-tagged dimer) GIISGRINIAAEFHINIFVKDYFKKKKLTFVNFVSLCPKGFNIENNKCIPCPIGLYYSNSKSINQCIPCENYRKHSTTLYNSAKSKTECLCKPGYFLKDKRCVKCVAGFYKDQIGNFKCQGTCENTKMSIEVGAKNYEELKCTCKDGYFTEKKKKECIPCPFGNYCIYNPKVKYKADIIRCKNNKLTLHRGSKSPNDCLCSQGYYHDYKMDECELCNYDQYKSHISNDPCVPFISKSLVNQEYLINEPYFQYTNIYIKQTSNIIFAPKKGSKMFHEATLCETGYSYSMNKAICSICRYNNYCLGLDHSSIICPKNSITIKLKSVSALDCLCIKGYGRIIINTNQAFTISCIPCPYNTFQPHHSYGKCIPCPPHTFTKITGATSITECIPKMGYYNIAFEYIYEYSKQQMLNSIPHFIQYYHYFLKNQYEHFA	0.976
26 (protein, bait human Fc-tagged dimer) KCIRLNNRAIYKNKYKNNVHIGTNENIRSIEKYSNVLCNSILCKNDKISSFINQRKNVDDDDESENDDMYESTTAGSSSETDNEADEEENDASDNNNADEEQIENSNNNNADEEQNDASSNDNNDEENEEQDDVMDNDQNDKKIKHSFNLANEAKHTKEERVKEEKKLKIYDFINDKEKRLNFNGDQKDEDNEENDDKDENTLENRNIISKHTSVFPGLYFIGIGYNLLFGNPLGEADSLIDPGYRAQIYLMEWALSKEGIANDLSTLQPVNGWIRKENACSRVESITECSSISDYTKSLSAEAKVSGSYWGIASFSASTGYSSFLHEVTKRSKKTFLVKSNCVKYTIGLPPYIPWDKTTAYKNAVNELPAVFTGLDKESECPSDVYEENKAKSNCENVALWMKFFDIYGTHIIYESQLGGKITKIINVATSSIEQMKKNGVSVKAKIQAQFGFGSAGGSTDVNSANSAANDEQSYDMNEQLIVIGGNPIKDVTKEENLFEWSKTVTNHPMPINIKLTPISDSFDSDDLKESYDKAIIYYSRLYGLSPHDTMQKDDKDIIKILTNADTVTKNSAPPINAQCPHGKVVMFGFSLKQNFWDNTNALKGYNIEVCEAGSNSCTSKQGSSNKYDTSYLYMECGDQPLPFSEQVISESTSTYNTVKCPNDYSILLGFGISSSSGRINSAEYVYSTPCIPGMKSCSLNMNNDNQKSYIYVLCVDTTIWSGVNNLALVALDGAHGKVNRAKKYSDGELVGTCPLDGTVLTGFKVEFHTSSPYVQTPFEKCAKSLKACSVHGSGHAIGIQNFKSLFIYMLCKNNK	0.914
